This assay has as its target LCMV glycoprotein GP33-41 epitope presented by the histocompatibility molecules H-2D^b (LCMV virus; mouse (C57BL/6)) (UniProt P09991). Description: cell-based or functional assay.

Turning to “T receptor (TCR Vα2 Vβ8) specific for the GP33-41 epitope, on CD8 T lymphocytes of TCR-transgenic C57BL/6 mice”, the % CD44^hi effector - memory, of CD8+ TCR Vα2 T cells, 7 days after injection of H293-341-LCMV.GP particle supernatant (control H293-341: 37.6) came to 63.9% and the CD44^lo (naïve), percent of CD8+ TCR Vα2 T cells, 7 days after injection of H293-341-LCMV.GP particle supernatant (control H293-341: 57.6) stood at 24.5%.
